Data published in patent publication US11332499B2, “Cyclic peptides and methods of use thereof” (Regents of the University of Minnesota, priority 2018, dated 2022).
Several values for one entry are separate records, joined by “and”; a condition that tells them apart may be missing. Identical values can stand only once. Like-named read-outs stand apart in the source and are kept apart here. Blank lines part the entries; values can stand above or below the substance they belong to. Bridge positions count the residues as written; N and C are the ends. Square brackets hold non-standard residues; d marks the D form. Ends that are not written are not given here.

Tests used:
hMC4R-Kir7.1(M125R) [1] = biological target: T1, hMC4R-Kir7.1(M125R) (Homo sapiens, UniProt P32245); details: up to 100 nM; literature; cited from earlier work
T1 construct: expressed in transfected cells; Kir7.1 tetracycline-induced)
T1 sequence (P32245 whole entry, stated change not applied): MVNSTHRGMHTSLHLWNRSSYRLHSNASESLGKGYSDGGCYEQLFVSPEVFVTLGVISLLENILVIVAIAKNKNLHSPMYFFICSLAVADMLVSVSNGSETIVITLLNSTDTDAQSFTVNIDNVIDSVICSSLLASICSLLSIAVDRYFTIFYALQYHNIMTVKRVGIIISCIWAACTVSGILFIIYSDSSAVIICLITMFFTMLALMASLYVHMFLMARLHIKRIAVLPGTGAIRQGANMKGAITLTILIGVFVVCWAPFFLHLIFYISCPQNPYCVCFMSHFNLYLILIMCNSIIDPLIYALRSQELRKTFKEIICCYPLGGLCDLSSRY

rats = details: ICV administration into rats; cited from earlier work
MC4R [2] = biological target: T2, MC4R (Homo sapiens, UniProt P32245); assay: AlphaScreen cAMP assay, inverse agonist activity at hMC4R; format: cell-based; parameters: expressed in transfected cells; details: Table 10
Target sequence in this assay (P32245 whole entry): as the sequence (P32245 whole entry, stated change not applied) above

MC4R [3] = biological target: T2, MC4R; parameters: expressed in transfected cells; details: Table 10; AGRP(87-132), previously reported by Jackson et al.; read-out: hMC4R 125I-NDP-MSH IC50; cited from earlier work
Target sequence in this assay (P32245 whole entry): as the sequence (P32245 whole entry, stated change not applied) above

hMC4R-Kir7.1(M125R) [4] = biological target: T1, hMC4R-Kir7.1(M125R); assay: Kir7.1 thallium flux assay, HEK293 cells expressing human MC4R and Kir7.1 (M125R); format: cell-based; details: antagonist Ki / Kir7.1 apparent potency
Method: In this assay, the Kir7.1 (M125R) variant was used since it previously was reported to result in higher unitary conductance compared to the native channel.^39
The compound with the highest apparent potency.
HEK293 cells stably expressing the human MC4R and Kir7.1 (M125R) were grown in MEM medium with 10% FBS without antibiotics, suspended in medium plus 1 μg ml^−1 tetracycline (to induce expression of the transfected tet-sensitive Kir7.1 gene) and plated (20 μL) in 384-well poly-D-lysine coated optical bottom plates (BD Biosciences) at 20,000 cells per well. Plates were incubated overnight for 16-24 h in the cell incubator at 37° C., 5% CO2. […] Plates were incubated in the dark for 1 h at room temperature and dye solution was removed. Upon addition of 20 μL 1×HBSS buffer, a liquid handler added 20 μL of ligand solution to entire plate simultaneously (ligands were prepared by serial dilution in 1×HBSS, 20 mM HEPES, 0.1% BSA, pH 7.3). Plates were incubated in the dark for 20 min (unless otherwise indicated). After a baseline reading on a Thallos Plate-reader (Vanderbilt, Tenn.), 10 μL of a thallium solution (1×HBSS, 20 mM HEPES, 2 mM Tl, pH 7.3) was loaded and fluorescence generated by thallium influx was recorded for 10 min. The signal was normalized to an untreated control.

MC4R [5] = biological target: T2, MC4R; details: previously reported; cited from earlier work
Target sequence in this assay (P32245 whole entry, species assumed): as the sequence (P32245 whole entry, stated change not applied) above

MC1R = MC1R (Mus musculus, UniProt Q01727); details: previously reported, read-out: MC1R agonist potency, cited from earlier work
Sequence of MC1R (Q01727 whole entry): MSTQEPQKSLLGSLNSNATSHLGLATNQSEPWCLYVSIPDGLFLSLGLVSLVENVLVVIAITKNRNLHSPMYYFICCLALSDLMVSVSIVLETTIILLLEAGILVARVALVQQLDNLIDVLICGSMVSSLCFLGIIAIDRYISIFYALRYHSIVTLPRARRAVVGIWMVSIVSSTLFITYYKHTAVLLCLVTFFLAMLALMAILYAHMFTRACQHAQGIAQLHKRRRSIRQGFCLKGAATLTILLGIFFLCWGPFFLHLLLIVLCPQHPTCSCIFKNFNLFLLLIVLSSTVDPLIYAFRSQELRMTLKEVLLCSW

MC4R [6] = biological target: T2, MC4R; assay: Competitive radioligand binding, displacement of 125I-NDP-MSH, HEK293 cells expressing hMC4R; parameters: expressed in transfected cells; details: displacement of 125I-NDP-MSH
Target sequence in this assay (P32245 whole entry): as the sequence (P32245 whole entry, stated change not applied) above

MC4R [7] = biological target: T2, MC4R; assay: Competitive radioligand binding, displacement of 125I-AGRP, HEK293 cells expressing hMC4R; parameters: expressed in transfected cells; details: displacement of 125I-AGRP
Target sequence in this assay (P32245 whole entry): as the sequence (P32245 whole entry, stated change not applied) above

free-feeding mice [8] = assay: Mouse feeding study, intrathecal (IT) administration (Example 5); format: in vivo; details: 10 nmol
Method: All studies were performed in standard mouse polycarbonate conventional cages provided by the University of Minnesota's Research Animal Resources (RAR), and were changed weekly by laboratory research staff.
All ICV and IT administration experiments utilized a crossover design with free access to standard chow. Mice were housed in RAR supplied conventional mouse cages. Compound MDE3-119-8e was dissolved in a stock solution of 10 nmols/μL in 3% v/v DMSO (Sigma Aldrich)/saline (0.9% sodium chloride, Hospira Inc., Lake Forest, Ill.). Ligands MDE3-119-2c and MDE3-119-10c were dissolved in 20% solutol (Sigma Aldrich). Matching vehicle controls (3% v/v DMSO in saline and 20% solutol) were prepared in parallel. The day of compound administration, an aliquot of stock solution was diluted with saline to the desired experimental dose in 3 μL, in parallel with vehicle control. For ICV administration, the desired experimental dose (3 μL) or vehicle control (3 μL) was delivered 2 h before lights out (t=0 h). […] Food intake and mouse weight was manually measured at t=0, 2, 4, 6, 8, 24, 48, and 72 h post-injection. […]
For feeding experiments with compound MDE3-119-10c, data were analyzed using the PRISM program (v4.0; GraphPad Inc.) by two-way ANOVA with a Sidak's multiple comparison post hoc test.

MC4R [9] = biological target: T2, MC4R; assay: AlphaScreen cAMP assay, antagonist activity (Schild, NDP-MSH) at hMC4R; format: cell-based; parameters: expressed in transfected cells; details: Example 5
Target sequence in this assay (P32245 whole entry): as the sequence (P32245 whole entry, stated change not applied) above

mMC4R [10] = biological target: T3, mMC4R (Mus musculus, UniProt P56450); parameters: expressed in transfected cells; details: cited from earlier work
T3 sequence (P56450 whole entry): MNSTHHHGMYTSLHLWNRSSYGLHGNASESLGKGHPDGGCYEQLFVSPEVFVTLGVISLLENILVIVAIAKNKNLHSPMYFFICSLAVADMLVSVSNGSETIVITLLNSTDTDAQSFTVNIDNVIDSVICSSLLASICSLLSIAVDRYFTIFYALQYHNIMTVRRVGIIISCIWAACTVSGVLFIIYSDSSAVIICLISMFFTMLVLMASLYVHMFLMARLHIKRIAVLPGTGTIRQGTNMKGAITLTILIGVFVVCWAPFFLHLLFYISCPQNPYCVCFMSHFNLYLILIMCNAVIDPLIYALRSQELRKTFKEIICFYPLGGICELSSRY

free-feeding mice [11] = assay: Mouse feeding study, intracerebroventricular (ICV) administration; format: in vivo; details: 10 nmol
mMC1R [12] = biological target: T4, mMC1R (Mus musculus, UniProt Q01727); details: Table 6; previously described (Wilczynski 2004); read-out: Agonist mMC1R EC50; cited from earlier work
T4 construct: expressed in transfected cells
T4 sequence (Q01727 whole entry): as the sequence (Q01727 whole entry) above

mMC5R [13] = biological target: T5, mMC5R (Mus musculus, UniProt P41149); details: Table 6; previously described (Wilczynski 2004); read-out: Inverse Agonist mMC5R EC50; cited from earlier work
T5 construct: expressed in transfected cells
T5 sequence (P41149 whole entry): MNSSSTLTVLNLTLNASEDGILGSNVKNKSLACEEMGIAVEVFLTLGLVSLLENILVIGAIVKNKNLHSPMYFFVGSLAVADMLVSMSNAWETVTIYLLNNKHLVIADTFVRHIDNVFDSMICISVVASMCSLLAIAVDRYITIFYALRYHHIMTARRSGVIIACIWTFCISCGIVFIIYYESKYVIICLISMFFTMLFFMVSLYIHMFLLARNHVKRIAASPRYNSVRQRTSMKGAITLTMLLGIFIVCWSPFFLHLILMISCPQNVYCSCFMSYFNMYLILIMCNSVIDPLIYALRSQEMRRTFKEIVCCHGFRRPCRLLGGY

mMC3R [14] = biological target: T6, mMC3R (Mus musculus, UniProt P33033); details: Table 6, previously described (Wilczynski 2004), cited from earlier work
T6 construct: expressed in transfected cells
T6 sequence (P33033 whole entry): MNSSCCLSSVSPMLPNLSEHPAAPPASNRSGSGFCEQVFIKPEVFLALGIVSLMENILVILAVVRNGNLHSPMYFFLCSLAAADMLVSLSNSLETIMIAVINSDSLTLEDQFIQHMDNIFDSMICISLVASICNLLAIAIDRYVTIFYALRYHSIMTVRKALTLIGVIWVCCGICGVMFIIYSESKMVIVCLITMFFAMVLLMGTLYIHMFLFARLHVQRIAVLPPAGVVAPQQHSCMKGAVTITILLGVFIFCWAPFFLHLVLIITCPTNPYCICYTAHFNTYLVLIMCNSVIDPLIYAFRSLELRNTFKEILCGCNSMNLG

mMC5R [15] = biological target: T5, mMC5R; assay: AlphaScreen cAMP assay, agonist and inverse agonist activity, HEK293 cells stably expressing mMC5R; format: cell-based; details: Table 2; at 100 μM
mMC3R [16] = biological target: T6, mMC3R; assay: AlphaScreen cAMP assay, agonist activity, HEK293 cells stably expressing mMC3R; format: cell-based; details: Table 2; at 100 μM
mMC1R [17] = biological target: T4, mMC1R; assay: AlphaScreen cAMP assay, agonist activity, HEK293 cells stably expressing mMC1R; format: cell-based; details: Table 2; at 100 μM, relative to NDP-MSH
mMC4R [18] = biological target: T3, mMC4R; details: Example 4; from Ki values
mMC4R [19] = biological target: T3, mMC4R; assay: AlphaScreen cAMP assay, agonist activity, HEK293 cells stably expressing mMC4R; format: cell-based; parameters: expressed in transfected cells; details: Table 2; at 100 μM
MC3R = MC3R (Mus musculus, UniProt P33033); details: β-galactosidase reporter gene assay; previously reported; cited from earlier work
Sequence of MC3R (P33033 whole entry): as above

MC4R [20] = biological target: MC4R (Mus musculus, UniProt P56450); details: β-galactosidase reporter gene assay; previously reported; cited from earlier work
Sequence of MC4R (Mus musculus, UniProt P56450) (P56450 whole entry): as the sequence (P56450 whole entry) above

hMC3R = hMC3R (Homo sapiens, UniProt P41968); details: inhibition of α-MSH activity; cited from earlier work
Sequence of hMC3R (P41968 whole entry): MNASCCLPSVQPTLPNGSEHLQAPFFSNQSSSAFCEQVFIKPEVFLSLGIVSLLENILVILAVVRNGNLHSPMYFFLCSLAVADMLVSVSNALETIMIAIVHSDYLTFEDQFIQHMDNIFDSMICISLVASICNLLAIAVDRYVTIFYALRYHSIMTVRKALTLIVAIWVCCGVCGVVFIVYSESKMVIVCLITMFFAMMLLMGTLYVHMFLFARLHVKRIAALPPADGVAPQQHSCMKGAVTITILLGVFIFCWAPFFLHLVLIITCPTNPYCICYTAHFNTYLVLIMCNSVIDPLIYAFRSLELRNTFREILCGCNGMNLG

hMC1R = hMC1R (Homo sapiens, UniProt Q01726); details: inhibition of α-MSH activity, cited from earlier work
Sequence of hMC1R (Q01726 whole entry): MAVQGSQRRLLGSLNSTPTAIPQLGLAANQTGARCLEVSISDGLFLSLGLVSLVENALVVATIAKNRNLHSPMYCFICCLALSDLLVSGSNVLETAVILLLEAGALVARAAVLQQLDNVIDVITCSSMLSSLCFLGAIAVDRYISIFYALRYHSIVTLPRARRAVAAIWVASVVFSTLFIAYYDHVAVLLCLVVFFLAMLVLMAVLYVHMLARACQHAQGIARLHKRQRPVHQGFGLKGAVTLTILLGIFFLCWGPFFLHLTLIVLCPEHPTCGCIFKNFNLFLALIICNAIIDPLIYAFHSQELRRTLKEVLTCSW

MC4R [21] = biological target: T2, MC4R; parameters: expressed in transfected cells; details: inhibition of α-MSH activity; cited from earlier work
Target sequence in this assay (P32245 whole entry): as the sequence (P32245 whole entry, stated change not applied) above

Substance: mini-AGRP: truncated form of AGRP (AGRP87-120, C105A) (CVRLHESCLGQQVPCCDPAATCYCRFFNAFCYCR; ends and bridges not checked; cysteine pairing not given here; UniProt O00253 87-120, looked up, fragment C105A)
effect on thallium flux (hMC4R-Kir7.1(M125R) [1]): did not affect thallium flux at concentrations up to 100 nM | increase of 24 h food intake above saline (rats): 21%

hMC4R Inverse Agonist, decrease from basal signal (MC4R [2]): (-35%) | fold selective for cAMP over Kir7.1 signaling (hMC4R-Kir7.1(M125R) [4]): 2 fold
Substance: hAGRP(86-132): C-terminal domain of agouti-related protein, purchased from Peptides International (RCVRLHESCLGQQVPCCDPCATCYCRFFNAFCYCRKLGTAMNPCSRT) [reference compound]
IC50 (MC4R [3]): 0.011 ± 0.001 µM

Substance: H-DPAATAYCRFFNAFCYARKL-OH (disulfide 8-15) [20 residue peptide]
MC4R antagonist pA2 (MC4R [5]): 6.9 | EC50 (MC1R): 0.96 µM

Substance: c[Pro-Arg-Phe-Phe-Val-Ala-Phe-DPro] [Peptide 13 (Example 1)]
fold decreased binding affinity compared to NDP-MSH (MC4R [6]): 200 fold | fold decreased binding affinity compared to AGRP (MC4R [7]): 200 fold | food intake after IT administration vs vehicle (free-feeding mice [8]): no effect on food intake compared to vehicle | fold selective for Kir7.1 signaling over cAMP antagonism (hMC4R-Kir7.1(M125R) [4]): 4,000 fold | fold decreased antagonist potency relative to MDE3-119-8c at the hMC4R (MC4R [9]): 310 fold | fold decreased antagonist potency compared to the Dap substitution at the mMC4R (mMC4R [10]; previous SAR study (ref 52)): 630 fold | cumulative food intake after ICV administration vs vehicle (free-feeding mice [11]): significant, prolonged decrease in cumulative food intake at 4, 6, 8, 24, 48, and 72 h

Substance: hAGRP(87-132): truncated human agouti-related protein, previously described in Wilczynski et al. 2004
EC50 (mMC1R [12]): > 100 µM | EC50 (mMC5R [13]): > 100 µM | Antagonist mMC3R pA2 (mMC3R [14]): 8.9 ± 0.2 | Ki (mMC3R [14]; read-out: Antagonist mMC3R Ki): 0.0013 µM | Antagonist mMC4R pA2 (mMC4R [10]; Table 6, previously described (Wilczynski 2004)): 9.4 ± 1.0 | Ki (mMC4R [10]; Table 6, previously described (Wilczynski 2004), read-out: Antagonist mMC4R Ki): 0.0004 µM | increase of 24 h food intake above saline (rats): 42%

mMC5R percent maximal stimulatory response (mMC5R [15]): 25% @ | mMC3R percent maximal stimulatory response (mMC3R [16]): 35% @ | mMC1R percent maximal stimulatory response (mMC1R [17]): 70% @ 100 μM | fold selectivity for the mMC4R over the mMC3R (mMC4R [18]): 600 fold and 630 fold | mMC4R percent maximal stimulatory response (mMC4R [19]): 35% @
Substance: 20 (cyclo(PRFFNFF[dP]); SMILES N=C(N)NCCC[C@@H]1NC(=O)[C@@H]2CCCN2C(=O)[C@H]2CCCN2C(=O)[C@H](Cc2ccccc2)NC(=O)[C@H](Cc2ccccc2)NC(=O)[C@H](CC(N)=O)NC(=O)[C@H](Cc2ccccc2)NC(=O)[C@H](Cc2ccccc2)NC1=O) [Peptide 20]

Substance: Tyr-c[Cys-Arg-Phe-Phe-Asn-Ala-Phe-Cys]-Tyr (YCRFFNAFCY; disulfide 2-9) [hAGRP (109-118)]
MC3R antagonist pA2 (MC3R): No activity | EC50 (MC1R; listed as H-Tyr-c[Cys-Arg-Phe-Phe-Asn-Ala-Phe-Cys]-Tyr-OH): 2.89 µM | EC50 (MC1R): 3 µM | MC4R antagonist pA2 (MC4R [20]): 6.8 ± 0.4

Substance: ASP-YY: synthesized ASP variant with two residues changed to the homologous AGRP residues (KKVVRPRTPLSAPCVATRNSCKPPAPACCDPCASCYCRFFRSACYCRVLSLNC; UniProt P42127 80-132, looked up, variant Q115Y S124Y)
functional antagonist potency, hMC3R (hMC3R): 0.0026 µM | functional antagonist potency, hMC1R (hMC1R): 0.0039 µM | functional antagonist potency, hMC1R (hMC1R; listed as Agouti-YY): 0.004 µM | functional antagonist potency, hMC4R (MC4R [21]): 0.0005 µM
